In patent US20210187118A1 (Daiichi Sankyo, published 2021):

Biological target: TA-MUC1 (tumor-associated MUC1) on human tumor cells (human, UniProt P15941 24-1255, aberrant tumor-associated O-glycosylation)
Experiment: cell-based or functional assay

TA-MUC1 (tumor-associated MUC1) on human tumor cells, sequence (P15941 24-1255): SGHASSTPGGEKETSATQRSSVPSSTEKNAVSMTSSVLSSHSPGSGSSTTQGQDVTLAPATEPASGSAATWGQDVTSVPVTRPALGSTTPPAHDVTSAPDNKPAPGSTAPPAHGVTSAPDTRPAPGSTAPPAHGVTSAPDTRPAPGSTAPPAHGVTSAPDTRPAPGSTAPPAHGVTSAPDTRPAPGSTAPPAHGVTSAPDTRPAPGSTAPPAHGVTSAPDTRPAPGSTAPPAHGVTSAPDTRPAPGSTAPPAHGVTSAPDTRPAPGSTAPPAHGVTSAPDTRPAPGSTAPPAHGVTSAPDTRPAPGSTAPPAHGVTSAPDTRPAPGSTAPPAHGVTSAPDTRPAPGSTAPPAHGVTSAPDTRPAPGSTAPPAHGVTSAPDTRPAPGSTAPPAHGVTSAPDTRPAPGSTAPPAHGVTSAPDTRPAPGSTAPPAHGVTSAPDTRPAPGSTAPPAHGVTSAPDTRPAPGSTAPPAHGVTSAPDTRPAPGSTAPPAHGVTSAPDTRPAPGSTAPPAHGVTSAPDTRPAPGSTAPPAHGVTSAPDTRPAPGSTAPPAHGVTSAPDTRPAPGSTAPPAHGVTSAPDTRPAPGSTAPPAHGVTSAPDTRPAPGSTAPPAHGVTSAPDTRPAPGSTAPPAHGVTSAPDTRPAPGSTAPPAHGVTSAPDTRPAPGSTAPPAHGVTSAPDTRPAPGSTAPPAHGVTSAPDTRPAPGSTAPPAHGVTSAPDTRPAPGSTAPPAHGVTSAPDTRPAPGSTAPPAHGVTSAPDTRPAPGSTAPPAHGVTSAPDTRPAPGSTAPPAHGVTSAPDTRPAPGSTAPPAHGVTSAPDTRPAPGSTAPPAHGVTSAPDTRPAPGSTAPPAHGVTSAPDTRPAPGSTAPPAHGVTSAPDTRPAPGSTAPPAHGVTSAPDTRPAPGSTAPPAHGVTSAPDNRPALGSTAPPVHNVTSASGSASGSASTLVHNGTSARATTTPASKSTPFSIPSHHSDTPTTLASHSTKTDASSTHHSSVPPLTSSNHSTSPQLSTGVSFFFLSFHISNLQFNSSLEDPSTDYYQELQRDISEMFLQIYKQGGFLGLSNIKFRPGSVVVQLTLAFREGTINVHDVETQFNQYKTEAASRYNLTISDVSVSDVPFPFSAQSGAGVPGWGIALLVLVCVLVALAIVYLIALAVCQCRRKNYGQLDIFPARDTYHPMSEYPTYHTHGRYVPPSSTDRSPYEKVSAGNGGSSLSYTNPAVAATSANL

B1: PankoMab-ADC (antibody, human IgG1, kappa, V domains shown)
VH: EVQLVESGGGLVQPGGSMRLSCVASGFPFSNYWMNWVRQAPGKGLEWVGEIRLKSNNYTTHYAESVKGRFTISRDDSKNSLYLQMNSLKTEDTAVYYCTRHYYFDYWGQGTLVTVSS
VL: DIVMTQSPLSNPVTPGEPASISCRSSKSLLHSNGITYFFWYLQKPGQSPQLLIYQMSNLASGVPDRFSGSGSGTDFTLRISRVEAEDVGVYYCAQNLELPPTFGQGTKVEIKR
modifications: drug-linker of Formula 2 bound by thioether bonds; drug-linker of Formula 2 (maleimide-GGFG linker with DXd/exatecan derivative) bound by thioether bonds; average approximately 8 drug molecules per antibody; Fab N-glycan on Asn54 (position 57)
IC50 of cytotoxic activity (cell viability, ATP assay, 6 days) on TA-MUC1 positive MDA-MB-468 cells: < 10 nM

B2: PM-N54Q-ADC (antibody, human IgG1, kappa, V domains shown)
VH: EVQLVESGGGLVQPGGSMRLSCVASGFPFSNYWMNWVRQAPGKGLEWVGEIRLKSNQYTTHYAESVKGRFTISRDDSKNSLYLQMNSLKTEDTAVYYCTRHYYFDYWGQGTLVTVSS
VL: DIVMTQSPLSNPVTPGEPASISCRSSKSLLHSNGITYFFWYLQKPGQSPQLLIYQMSNLASGVPDRFSGSGSGTDFTLRISRVEAEDVGVYYCAQNLELPPTFGQGTKVEIKR
modifications: drug-linker of Formula 2 bound by thioether bonds; drug-linker of Formula 2 (maleimide-GGFG linker with DXd/exatecan derivative) bound by thioether bonds; average approximately 8 drug molecules per antibody
cytotoxic activity on HPAC and NCI-H441 cells, fold against PankoMab-ADC: > 1.5 fold
potency ratio of PM-N54Q-ADC to PankoMab-ADC, cytotoxic activity on HPAC cells: 1.92 ratio
potency ratio of PM-N54Q-ADC to PankoMab-ADC, cytotoxic activity on NCI-H441 cells: 1.66 ratio
